The Kd is a measure of binding affinity in units of concentration. Broadly, the koff is the first-order rate constant of dissociation. A higher koff goes with fast dissociation. By kon is commonly meant a measure of how fast the partners come together. High values mean fast association, low ones slow association.

Where no end group is shown, it is not given here.

For 14 molecules, Kd, koff and kon results are on record in patent publication US20140051120A1 (Genentech, published 2014).

Experiment [1] concerns the target T1, mouse EGFL7 (mEGFL7-CB-His) (mouse, UniProt Q9QXT5 22-275).
T1 sequence: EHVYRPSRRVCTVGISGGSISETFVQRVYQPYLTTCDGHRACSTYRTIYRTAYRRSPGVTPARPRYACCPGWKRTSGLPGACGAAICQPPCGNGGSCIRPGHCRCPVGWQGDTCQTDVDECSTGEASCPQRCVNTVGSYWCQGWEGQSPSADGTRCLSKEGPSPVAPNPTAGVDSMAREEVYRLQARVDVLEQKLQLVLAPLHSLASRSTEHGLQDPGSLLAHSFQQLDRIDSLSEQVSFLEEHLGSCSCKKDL
As to the kind of experiment: SPR (Biacore), IgG over immobilized mEGFL7-CB at 37 C.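 Further: IgG injected as twofold series from 0.5 to 1000 nM, 3 min association and 3.5 min dissociation, reference flow cell subtracted, kinetics fitted to 1:1 Langmuir model.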 Background: SPR reads the build-up and loss of mass on a sensor chip optically.

The target of the next experiment is T2, p5 peptide of EGFL7 (human).
T2 construct: also called Peptide P5
T2 peptide: RACSTYRTIYRTA
Description: SPR (Biacore), IgG over immobilized P5 peptide at 37 C.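 Further: IgG variants injected at 0.5–1000 nM (2-fold series), 3 min association and 3.5 min dissociation, reference flow cell subtracted, kinetics fitted with a 1:1 Langmuir model.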

The target in experiment [2] is T3, p2S (p2 peptide biotinylated through its free cysteine) (human, also: biotinylated (maleimide PEO2-biotin) on one of the two Cys, which one not given here).
T3 construct: The peptide has two cysteines; also called b-p2S
T3 peptide: RPRYACCPGWKRT
As to the kind of experiment: SPR (BIAcore-2000), IgG injected over immobilized p2S peptide.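 Further: CM5 chip with immobilized peptide, IgG at 0.5–1000 nM in PBST, 3 min association and 3.5 min dissociation, reference-cell subtracted, rates fitted by 1:1 Langmuir model.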

B1: 18F7.v3 IgG (antibody, name in Kabat numbering, V domains shown)
VH: EVQLVESGGGLVQPGGSLRLSCAASGYTFIDYYMNWVRQAPGKGLEWVGDINLDNGGTHYNQKFKGRFTISRDKSKNTAYLQMNSLRAEDTAVYYCAREGVYHDYDDYAMDYWGQGTLVTVSS
VL: DIQMTQSPSSLSASVGDRVTITCRTSQSLVHINGITYLHWYQQKPGKAPKLLIYRVSNRFSGVPSRFSGSGSGTDFTLTISSLQPEDFATYYCSQSTHVPLTFGQGTKVEIKR
notes: IgG; Kabat numbering; also called 18F7-KA
For B1, in experiment [1], the Kd stood at 1.64 nM, the koff is 9.05e-05 s⁻¹ and the kon stood at 55000 M⁻¹ s⁻¹. In the experiment with p5 peptide of EGFL7, this molecule yielded a Kd of 4.22 nM, a koff of 0.000858 s⁻¹ and a kon of 203000 M⁻¹ s⁻¹.

B2: 18F7.v6I IgG (antibody, V domains shown)
VH: EVQLVESGGGLVQPGGSLRLSCAASGYTFIDYYMNWVRQAPGKGLEWVGDINLDNSGTHYNQKFKGRFTISRDKSKNTAYLQMNSLRAEDTAVYYCAREGVYHDYDDYAMDYWGQGTLVTVSS
VL: DIQMTQSPSSLSASVGDRVTITCRTSQSLVHIQGITYLHWYQQKPGKAPKLLIYRVSNRFSGVPSRFSGSGSGTDFTLTISSLQPEDFATYYCGQSTHVPLTFGQGTKVEIK
notes: IgG; Variant of 18F7.v6
For the molecule B2, in experiment [1], binding was put at a Kd of 21.3 nM, the off-rate (koff) was 0.000488 s⁻¹ and the kon worked out at 23000 M⁻¹ s⁻¹. For the same molecule, in the experiment with p5 peptide of EGFL7, the affinity, expressed as Kd, was 16.7 nM; the koff was 0.00316 s⁻¹; the on-rate (kon) is 190000 M⁻¹ s⁻¹.

B3: 18F7.v4 IgG (antibody, name in Kabat numbering, V domains shown)
VH: EVQLVESGGGLVQPGGSLRLSCAASGYTFIDYYMNWVRQAPGKGLEWVGDINLDNGGTHYNQKFKGRFTISRDKSKNTVYLQMNSLRAEDTAVYYCAREGVYHDYDDYAMDYWGQGTLVTVSS
VL: DIQMTQSPSSLSASVGDRVTITCRTSQSLVHINGITYLHWYQQKPGKAPKLLIYRVSNRFSGVPSRFSGSGSGTDFTLTISSLQPEDFATYYCSQSTHVPLTFGQGTKVEIKR
notes: IgG; Kabat numbering; also called 18F7-KV
In experiment [1], B3 showed a Kd of 4.15 nM, a koff of 0.000208 s⁻¹ and a kon of 50000 M⁻¹ s⁻¹. In the experiment with p5 peptide of EGFL7, this molecule displayed a Kd of 7.27 nM, a koff of 0.00132 s⁻¹ and a kon of 182000 M⁻¹ s⁻¹.

B4: 18F7.v10 IgG (antibody, V domains shown)
VH: EVQLVESGGGLVQPGGSLRLSCAASGYTFIDYYMNWVRQAPGKGLEWVGDINLDNGGTHYNQKFKGRFTISRDKSKNTAYLQMNSLRAEDTAVYYCAREGVYHPYDDYAMDYWGQGTLVTVSS
VL: DIQMTQSPSSLSASVGDRVTITCRTSQSLVHINGITYLHWYQQKPGKAPKLLIYRVSNRFSGVPSRFSGSGSGTDFTLTISSLQPEDFATYYCSQSTHVPLTFGQGTKVEIK
notes: IgG; Kabat numbering
Consider B4, for which, in experiment [1], the Kd is 1.22 nM, the koff stood at 0.000195 s⁻¹ and the kon was 160000 M⁻¹ s⁻¹. Further, in the experiment with p5 peptide of EGFL7, the dissociation constant (Kd) came out at 0.982 nM, the koff amounted to 0.000811 s⁻¹ and the kon came out at 825000 M⁻¹ s⁻¹.

B5: 18F7.v8 IgG (antibody, V domains shown)
VH: EVQLVESGGGLVQPGGSLRLSCAASGYTFIDYYMNWVRQAPGKGLEWVGDINLDNGGTHYNQKFKGRFTISRDKSKNTAYLQMNSLRAEDTAVYYCAREGVYHDYDDYAMDYWGQGTLVTVSS
VL: DIQMTQSPSSLSASVGDRVTITCRTSQSLVHINGITYLHWYQQKPGKAPKLLIYRVSNRFSGVPSRFSGSGSGTDFTLTISSLQPEDFATYYCVQSTHVPLTFGQGTKVEIK
notes: IgG; Kabat numbering
With B5, in experiment [1], the Kd worked out at 2.04 nM, the koff came out at 0.000199 s⁻¹ and the kon stood at 98000 M⁻¹ s⁻¹. In the experiment with p5 peptide of EGFL7, this molecule yielded a Kd of 2.16 nM, an off-rate (koff) of 0.00102 s⁻¹ and a kon of 472000 M⁻¹ s⁻¹.

B6: 18F7.v6J IgG (antibody, V domains shown)
VH: EVQLVESGGGLVQPGGSLRLSCAASGYTFIDYYMNWVRQAPGKGLEWVGDINLDNSGTHYNQKFKGRFTISRDKSKNTAYLQMNSLRAEDTAVYYCAREGVYHDYDDYAMDYWGQGTLVTVSS
VL: DIQMTQSPSSLSASVGDRVTITCRTSQSLVHINSITYLHWYQQKPGKAPKLLIYRVSNRFSGVPSRFSGSGSGTDFTLTISSLQPEDFATYYCGQSTHVPLTFGQGTKVEIK
notes: IgG; Variant of 18F7.v6
In experiment [1], B6 came in with a Kd of 0.8 nM, a koff of 1.64e-05 s⁻¹ and a kon of 21000 M⁻¹ s⁻¹. In the experiment with p5 peptide of EGFL7, this molecule returned a Kd of 5.6 nM, a koff of 0.000607 s⁻¹ and an on-rate constant (kon) of 108000 M⁻¹ s⁻¹.

B7: 18F7.v9 IgG (antibody, V domains shown)
VH: EVQLVESGGGLVQPGGSLRLSCAASGYTFIDKYMNWVRQAPGKGLEWVGDINLDNGGTHYNQKFKGRFTISRDKSKNTAYLQMNSLRAEDTAVYYCAREGVYHDYDDYAMDYWGQGTLVTVSS
VL: DIQMTQSPSSLSASVGDRVTITCRTSQSLVHINGITYLHWYQQKPGKAPKLLIYRVSNRFSGVPSRFSGSGSGTDFTLTISSLQPEDFATYYCSQSTHVPLTFGQGTKVEIK
notes: IgG; Kabat numbering
In the case of B7, in experiment [1], the Kd came out at 1.58 nM, the koff is 9.32e-05 s⁻¹ and the kon stood at 59000 M⁻¹ s⁻¹. For the same molecule, in the experiment with p5 peptide of EGFL7, the affinity, expressed as Kd, was 3.35 nM; the dissociation rate constant (koff) is 0.000763 s⁻¹; the kon came to 228000 M⁻¹ s⁻¹.

B8: 18F7.v2 IgG (antibody, name in Kabat numbering, V domains shown)
VH: EVQLVESGGGLVQPGGSLRLSCAASGYTFIDYYMNWVRQAPGKGLEWVGDINLDNGGTHYNQKFKGRFTISRDKSKNTLYLQMNSLRAEDTAVYYCAREGVYHDYDDYAMDYWGQGTLVTVSS
VL: DIQMTQSPSSLSASVGDRVTITCRTSQSLVHINGITYLHWYQQKPGKAPKLLIYRVSNRFSGVPSRFSGSGSGTDFTLTISSLQPEDFATYYCSQSTHVPLTFGQGTKVEIKR
notes: IgG; Kabat numbering; also called 18F7-K
In experiment [1], B8 yielded a Kd of 1.81 nM, a dissociation rate constant (koff) of 0.000198 s⁻¹ and an on-rate (kon) of 110000 M⁻¹ s⁻¹. For the same molecule, in the experiment with p5 peptide of EGFL7, binding was characterised by a dissociation constant (Kd) of 2.59 nM, the koff amounted to 0.00119 s⁻¹ and the kon amounted to 458000 M⁻¹ s⁻¹.

B9: 18F7.v6E IgG (antibody, V domains shown)
VH: EVQLVESGGGLVQPGGSLRLSCAASGYTFIDYYMNWVRQAPGKGLEWVGDINLDNSGTHYNQKFKGRFTISRDKSKNTAYLQMNSLRAEDTAVYYCAREGVYHDYDDYAMDYWGQGTLVTVSS
VL: DIQMTQSPSSLSASVGDRVTITCRTSQSLVHISGITYLHWYQQKPGKAPKLLIYRVSNRFSGVPSRFSGSGSGTDFTLTISSLQPEDFATYYCGQSTHVPLTFGQGTKVEIK
notes: IgG; Variant of 18F7.v6
In experiment [1], B9 returned a Kd of 9.9 nM, a koff of 0.000474 s⁻¹ and a kon of 48000 M⁻¹ s⁻¹. In the experiment with p5 peptide of EGFL7, this molecule showed a dissociation constant Kd of 5.1 nM, a koff of 0.00154 s⁻¹ and a kon of 303000 M⁻¹ s⁻¹.

B10: 18F7.v5 IgG (antibody, V domains shown)
VH: EVQLVESGGGLVQPGGSLRLSCAASGYTFIDYYMNWVRQAPGKGLEWVGDINLDNGGTHYNQKFKGRFTISRDKSKNTAYLQMNSLRAEDTAVYYCAREGVYHDYDDYAMDYWGQGTLVTVSS
VL: DIQMTQSPSSLSASVGDRVTITCRTSQSLVHINGITYLHWYQQKPGKAPKLLIYRVSNRGSGVPSRFSGSGSGTDFTLTISSLQPEDFATYYCSQSTHVPLTFGQGTKVEIK
notes: IgG; Kabat numbering
In experiment [1], B10 returned a Kd of 1.61 nM, a koff of 0.000117 s⁻¹ and a kon of 73000 M⁻¹ s⁻¹. For the same molecule, in the experiment with p5 peptide of EGFL7, the Kd is 2.7 nM, the koff came out at 0.000892 s⁻¹ and the kon is 330000 M⁻¹ s⁻¹.

B11: 18F7.v1 IgG (18F7-graft) (antibody, V domains shown)
VH: EVQLVESGGGLVQPGGSLRLSCAASGYTFIDYYMNWVRQAPGKGLEWVGDINLDNGGTHYNQKFKGRFTISRDNSKNTLYLQMNSLRAEDTAVYYCAREGVYHDYDDYAMDYWGQGTLVTVSS
VL: DIQMTQSPSSLSASVGDRVTITCRTSQSLVHINGITYLHWYQQKPGKAPKLLIYRVSNRFSGVPSRFSGSGSGTDFTLTISSLQPEDFATYYCSQSTHVPLTFGQGTKVEIKR
notes: Expressed as IgG
In experiment [1], B11 came in with a Kd of 2.82 nM, a koff of 0.000274 s⁻¹ and a kon of 97000 M⁻¹ s⁻¹. In the experiment with p5 peptide of EGFL7, the Kd is 6.3 nM, the koff worked out at 0.002 s⁻¹ and the kon turned out to be 317000 M⁻¹ s⁻¹.

B12: 18F7.v7 IgG (antibody, V domains shown)
VH: EVQLVESGGGLVQPGGSLRLSCAASGYTFIDYYMNWVRQAPGKGLEWVGDINLDNGGTHYNQKFKGRFTISRDKSKNTAYLQMNSLRAEDTAVYYCAREGVYHDYDDYAMDYWGQGTLVTVSS
VL: DIQMTQSPSSLSASVGDRVTITCRTSQSLVHINGITYLHWYQQKPGKAPKLLIYRVSNRFSGVPSRFSGSGSGTDFTLTISSLQPEDFATYYCAQSTHVPLTFGQGTKVEIK
notes: IgG; Kabat numbering
In experiment [1], B12 gave a Kd of 1.38 nM, a koff of 9.58e-05 s⁻¹ and a kon of 70000 M⁻¹ s⁻¹. In addition, in the experiment with p5 peptide of EGFL7, the Kd is 2.87 nM, the koff stood at 0.000718 s⁻¹ and the kon turned out to be 251000 M⁻¹ s⁻¹.

B13: 4F11.v1 IgG (antibody, V domains shown)
VH: EVQLVESGGGLVQPGGSLRLSCAASGHTFTTYGMSWVRQAPGKGLEWVGWINTHSGVPTYADDFKGRFTISRDNSKNTLYLQMNSLRAEDTAVYYCARLGSSAVDYWGQGTLVTVSS
VL: DIQMTQSPSSLSASVGDRVTITCKASQSVDYDGDSYMSWYQQKPGKAPKLLIYGASNLESGVPSRFSGSGSGTDFTLTISSLQPEDFATYYCQQNNEDPYTFGQGTKVEIKR
notes: Expressed as IgG in 293 cells; also called 4F11-graft; direct CDR-graft
For B13, in experiment [2], the Kd was determined as 96.8 nM, the koff was 0.00331 s⁻¹ and the kon was determined as 34200 M⁻¹ s⁻¹.

B14: 4F11.v2 IgG (antibody, name in Kabat numbering, V domains shown)
VH: EVQLVESGGGLVQPGGSLRLSCAASGHTFTTYGMSWVRQAPGKGLEWVGWINTHSGVPTYADDFKGRFTISRDNSKNTTYLQMNSLRAEDTAVYYCARLGSSAVDYWGQGTLVTVSS
VL: DIQMTQSPSSLSASVGDRVTITCKASQSVDYDGDSYMSWYQQKPGKAPKLLIYGASNLESGVPSRFSGSGSGTDFTLTISSLQPEDFATYYCQQNNEDPYTFGQGTKVEIKR
notes: IgG; Kabat numbering
In experiment [2], B14 came in with a Kd of 54.4 nM, an off-rate constant (koff) of 0.00291 s⁻¹ and a kon of 53500 M⁻¹ s⁻¹.
